This passage reports response results from publication PMC10185811.

Assay [1] deals with T1, GST-NUB1L, Q9Y5A7-1.
T1 chain: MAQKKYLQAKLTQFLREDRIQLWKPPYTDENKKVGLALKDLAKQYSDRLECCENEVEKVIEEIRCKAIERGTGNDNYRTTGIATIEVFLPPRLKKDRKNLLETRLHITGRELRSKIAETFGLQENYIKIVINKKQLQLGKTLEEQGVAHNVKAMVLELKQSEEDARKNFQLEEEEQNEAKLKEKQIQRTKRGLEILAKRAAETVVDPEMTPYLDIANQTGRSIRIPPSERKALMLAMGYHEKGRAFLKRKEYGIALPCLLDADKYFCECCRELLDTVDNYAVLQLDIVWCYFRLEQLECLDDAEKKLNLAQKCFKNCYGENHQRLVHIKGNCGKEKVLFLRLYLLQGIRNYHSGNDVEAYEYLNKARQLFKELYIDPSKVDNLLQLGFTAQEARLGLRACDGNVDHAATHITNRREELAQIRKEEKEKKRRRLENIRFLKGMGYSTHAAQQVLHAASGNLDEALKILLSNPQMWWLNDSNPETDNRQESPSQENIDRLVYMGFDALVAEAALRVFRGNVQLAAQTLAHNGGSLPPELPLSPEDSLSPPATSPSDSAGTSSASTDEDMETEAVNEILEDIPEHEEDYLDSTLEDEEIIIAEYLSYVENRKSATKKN
The assay can be described thus: Octet (BLI). The conditions noted are these: chain shown with the change; GST-NUB1L on the sensor; His6-RPN1 variant in solution; parent: est. 0.58; read off a plot.

Assay [2] deals with T2, GST-RAD23, P54727.
T2 chain: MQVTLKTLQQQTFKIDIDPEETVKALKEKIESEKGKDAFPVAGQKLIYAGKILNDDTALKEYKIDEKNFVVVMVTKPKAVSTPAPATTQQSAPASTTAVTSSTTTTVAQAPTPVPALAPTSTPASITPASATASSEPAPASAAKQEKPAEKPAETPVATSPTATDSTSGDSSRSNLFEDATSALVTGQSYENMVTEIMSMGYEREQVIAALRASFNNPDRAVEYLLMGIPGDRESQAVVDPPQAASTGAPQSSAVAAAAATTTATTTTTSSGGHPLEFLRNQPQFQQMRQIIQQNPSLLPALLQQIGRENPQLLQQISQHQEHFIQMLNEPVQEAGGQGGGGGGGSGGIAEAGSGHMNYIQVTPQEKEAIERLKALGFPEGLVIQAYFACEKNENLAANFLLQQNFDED
The assay can be described thus: Octet (BLI). The settings on record: chain shown with the change; GST-RAD23 on the sensor; GST control curve in the same panel reaches est. 0.13 nm; read off a plot.

B1: His6-RPN1 WT, Q13200 T2 (protein)
chain: MEEGGRDKAPVQPQQSPAAAPGGTDEKPSGKERRDAGDKDKEQELSEEDKQLQDELEMLVERLGEKDTSLYRPALEELRRQIRSSTTSMTSVPKPLKFLRPHYGKLKEIYENMAPGENKRFAADIISVLAMTMSGERECLKYRLVGSQEELASWGHEYVRHLAGEVAKEWQELDDAEKVQREPLLTLVKEIVPYNMAHNAEHEACDLLMEIEQVDMLEKDIDENAYAKVCLYLTSCVNYVPEPENSALLRCALGVFRKFSRFPEALRLALMLNDMELVEDIFTSCKDVVVQKQMAFMLGRHGVFLELSEDVEEYEDLTEIMSNVQLNSNFLALARELDIMEPKVPDDIYKTHLENNRFGGSGSQVDSARMNLASSFVNGFVNAAFGQDKLLTDDGNKWLYKNKDHGMLSAAASLGMILLWDAKGGLAAIDKYLYSSEDYIKSGALLACGIVNSGVRNECDPALALLSDYVLHNSNTMRLGSIFGLGLAYAGSNREDVLTLLLPVMGDSKSSMEVAGVTALACGMIAVGSCNGDVTSTILQTIMEKSETELKDTYARWLPLGLGLNHLGKGEAIEAILAALEVVSEPFRSFANTLVDVCAYAGSGNVLKVQQLLHICSEHFDSKEKEEDKDKKEKKDKDKKEAPADMGAHQGVAVLGIALIAMGEEIGAEMALRTFGHLLRYGEPTLRRAVPLALALISVSNPRLNILDTLSKFSHDADPEVSYNSIFAMGMVGSGTNNARLAAMLRQLAQYHAKDPNNLFMVRLAQGLTHLGKGTLTLCPYHSDRQLMSQVAVAGLLTVLVSFLDVRNIILGKSHYVLYGLVAAMQPRMLVTFDEELRPLPVSVRVGQAVDVVGQAGKPKTITGFQTHTTPVLLAHGERAELATEEFLPVTPILEGFVILRKNPNYDL
For B1, the response was determined as 0.28 nm in assay [1] and 0.25 nm in assay [2].

B2: His6-RPN1 WT, Q13200 T1; T2 (protein)
chain: MEEGGRDKAPVQPQQSPAAAPGGTDEKPSGKERRDAGDKDKEQELSEEDKQLQDELEMLVERLGEKDTSLYRPALEELRRQIRSSTTSMTSVPKPLKFLRPHYGKLKEIYENMAPGENKRFAADIISVLAMTMSGERECLKYRLVGSQEELASWGHEYVRHLAGEVAKEWQELDDAEKVQREPLLTLVKEIVPYNMAHNAEHEACDLLMEIEQVDMLEKDIDENAYAKVCLYLTSCVNYVPEPENSALLRCALGVFRKFSRFPEALRLALMLNDMELVEDIFTSCKDVVVQKQMAFMLGRHGVFLELSEDVEEYEDLTEIMSNVQLNSNFLALARELDIMEPKVPDDIYKTHLENNRFGGSGSQVDSARMNLASSFVNGFVNAAFGQDKLLTDDGNKWLYKNKDHGMLSAAASLGMILLWDAKGGLAAIDKYLYSSEDYIKSGALLACGIVNSGVRNECDPALALLSDYVLHNSNTMRLGSIFGLGLAYAGSNREDVLTLLLPVMGDSKSSMEVAGVTALACGMIAVGSCNGAVTSTILRTIMRKSETELKDTYARWLPLGLGLNHLGKGEAIEAILAALEVVSEPFRSFANTLVDVCAYAGSGNVLKVQQLLHICSEHFDSKEKEEDKDKKEKKDKDKKEAPADMGAHQGVAVLGIALIAMGEEIGAEMALRTFGHLLRYGEPTLRRAVPLALALISVSNPRLNILDTLSKFSHDADPEVSYNSIFAMGMVGSGTNNARLAAMLRQLAQYHAKDPNNLFMVRLAQGLTHLGKGTLTLCPYHSDRQLMSQVAVAGLLTVLVSFLDVRNIILGKSHYVLYGLVAAMQPRMLVTFDEELRPLPVSVRVGQAVDVVGQAGKPKTITGFQTHTTPVLLAHGERAELATEEFLPVTPILEGFVILRKNPNYDL
For B2, the response in assay [1] was determined as 0.18 nm.
